Substrate in this data set: Nc1ncnc2c1ncn2[C@@H]1O[C@H](COP(=O)(O)OP(=O)(O)OP(=O)(O)O)[C@@H](O)[C@H]1O
Kind of data set: purified protein. The settings on record: MgATP, MgCl2 twice the ATP concentration, 25 mM Tris/HCl pH 8.0, 60 mM KCl, 25 °C, at saturating MgATP, non-Michaelis kinetics, local double-reciprocal fit of three consecutive concentrations.

This is an account of results in publication PMC10985318.

B1: V1ΔHC (S. cerevisiae V1-ATPase lacking subunits H and C) (Saccharomyces cerevisiae S288C) (protein)
chain 1: AGAIENARKEIKRISLEDHAESEYGAIYSVSGPVVIAENMIGCAMYELVKVGHDNLVGEVIRIDGDKATIQVYEETAGLTVGDPVLRTGKPLSVELGPGLMETIYDGIQRPLKAIKEESQSIYIPRGIDTPALDRTIKWQFTPGKFQVGDHISGGDIYGSVFENSLISSHKILLPPRSRGTITWIAPAGEYTLDEKILEVEFDGKKSDFTLYHTWPVRVPRPVTEKLSADYPLLTGQRVLDALFPCVQGGTTCIPGAFGCGKTVISQSLSKYSNSDAIIYVG
chain 2: CGERGNEMAEVLMEFPELYTEMSGTKEPIMKRTTLVANTSNMPVAAREASIYTGITLAEYFRDQGKNVSMIADSSSRWAEALREISGRLGEMPADQGFPAYLGAKLASFYERAGKAVALGSPDRTGSVSIVAAVSPAGGDFSDPVTTATLGITQVFWGLDKKLAQRKHFPSINTSVSYSKYTNVLNKFYDSNYPEFPVLRDRMKEILSNAEELEQVVQLVGKSALSDSDKITLDVATLIKEDFLQQNGYSTYDAFCPIWKTFDMMRAFISYHDEAQKAVANGANWSKLADSTGDVKHAVSSSKFFEPSRGEKEVHGEFEKLLSTMQERFAESTD
chain 3: VLSDKELFAINKKAVEQGFNVKPRLNYNTVSGVNGPLVILEKVKFPRYNEIVNLTLPDGTVRQGQVLEIRGDRAIVQVFEGTSGIDVKKTTVEFTGESLRIPVSEDMLGRIFDGSGRPIDNGPKVFAEDYLDINGSPINPYARIYPEEMISTGVSAIDTMNSIARGQKIPIFSASGLPHNEIAAQICRQAGLVRPTKDVHDGHEENFSIVFAAMGVNLETARFFKQDFEENGSLERTSLFLNLANDPTIERIITPRLALTTAEYLAYQTERHVLTILTDMSSYADALREVSAAREEVPGRRGYPGYMYTDLSTIYERAGRVEGRNGSITQIPILTMPNDDITHPIPDLTGYITEGQIFVDRQLHNKGIYPPINVLPSLSRLMKSAIGEGMTRKDHGDVSNQLYAKYAIGKDAAAMKAVVGEEALSIEDKLSLEFLEKFEKTFITQGAYEDRTVFESLDQAWSLLRIYPKEMLNRISPKILDEFYDRARDDADEDEEDPDTRSSGKKKDASQEESLI
The term Km denotes the concentration of substrate that gives half-maximal velocity. One may read the kcat as the number of substrate molecules converted per active site and unit of time at saturation. Consider B1, for which the Km stood at 41.7 µM and the kcat was determined as 9.6 s⁻¹.
